B1: INTS3 (parent)
chain: FHPIKETVVEEPVDITPYLDQLDE

Variants of: B1
Experiment: protein stability index of a GFP-peptide fusion (GPS, HEK-293T) (PSI 1-6); higher = more stable
Conditions: c terminus: a fixed tail appended
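Note: lentivirally expressed fusions sorted by FACS into six bins by GFP to DsRed ratio, PSI derived from sequencing read proportions per bin multiplied by bin number.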

Variant | protein stability index
FHPIKETVVEETVDITPYLDQLDE [P12T] | 3.18
FHPIKETVVEEDVDITPYLDQLDE [P12D] | 3.52
FHPIKETVVEEFVDITPYLDQLDE [P12F] | 3.65
FHPIKETVVEEKVDITPYLDQLDE [P12K] | 3.04
FHPIKETVVEEQVDITPYLDQLDE [P12Q] | 3.52
FHPIKETVVEEHVDITPYLDQLDE [P12H] | 3.29
FHPIKETVVEEIVDITPYLDQLDE [P12I] | 2.93
FHPIKETVVEEYVDITPYLDQLDE [P12Y] | 2.81
FHPIKETVVEEGVDITPYLDQLDE [P12G] | 3.58
FHPIKETVVEEVVDITPYLDQLDE [P12V] | 3.06
FHPIKETVVEEWVDITPYLDQLDE [P12W] | 2.79
FHPIKETVVEENVDITPYLDQLDE [P12N] | 3.57
FHPIKETVVEESVDITPYLDQLDE [P12S] | 3.31
FHPIKETVVEEAVDITPYLDQLDE [P12A] | 2.99
FHPIKETVVEEMVDITPYLDQLDE [P12M] | 2.65
FHPIKETVVEELVDITPYLDQLDE [P12L] | 3.1
FHPIKETVVEEEVDITPYLDQLDE [P12E] | 3.52
FHPIKETVVEECVDITPYLDQLDE [P12C] | 3.03
FHPIKETVVEERVDITPYLDQLDE [P12R] | 3.01
FHPIKETVVEEPVDIVPYLDQLDE [T16V] | 3.14
FHPIKETVVEEPVDIIPYLDQLDE [T16I] | 3.41
FHPIKETVVEEPVDISPYLDQLDE [T16S] | 3.32
FHPIKETVVEEPVDIQPYLDQLDE [T16Q] | 3.79
FHPIKETVVEEPVDIPPYLDQLDE [T16P] | 3

Variant | protein stability index
FHPIKETVVEEPVDIHPYLDQLDE [T16H] | 2.79
FHPIKETVVEEPVDIAPYLDQLDE [T16A] | 3.91
FHPIKETVVEEPVDIKPYLDQLDE [T16K] | 3.45
FHPIKETVVEEPVDILPYLDQLDE [T16L] | 3.05
FHPIKETVVEEPVDIGPYLDQLDE [T16G] | 3.44
FHPIKETVVEEPVDIWPYLDQLDE [T16W] | 2.33
FHPIKETVVEEPVDIFPYLDQLDE [T16F] | 3.2
FHPIKETVVEEPVDIEPYLDQLDE [T16E] | 3.75
FHPIKETVVEEPVDIYPYLDQLDE [T16Y] | 2.77
FHPIKETVVEEPVDINPYLDQLDE [T16N] | 3.18
FHPIKETVVEEPVDIDPYLDQLDE [T16D] | 3.79
FHPIKETVVEEPVDICPYLDQLDE [T16C] | 3.09
FHPIKETVVEEPVDIMPYLDQLDE [T16M] | 3.73
FHPIKETVVEEPVDIRPYLDQLDE [T16R] | 2.84
FHPIKETVVEWPVDITPYLDQLDE [E11W] | 2.11
FHPIKETVVEVPVDITPYLDQLDE [E11V] | 2.79
FHPIKETVVEYPVDITPYLDQLDE [E11Y] | 2.51
FHPIKETVVETPVDITPYLDQLDE [E11T] | 2.54
FHPIKETVVEEPVDYTPYLDQLDE [I15Y] | 3.3
FHPIKETVVEEPVDATPYLDQLDE [I15A] | 3.43
FHPIKETVVEEPVDRTPYLDQLDE [I15R] | 4.13
FHPIKETVVEEPVDHTPYLDQLDE [I15H] | 3.03
FHPIKETVVEEPVDDTPYLDQLDE [I15D] | 4.18
FHPIKETVVEEPVDSTPYLDQLDE [I15S] | 2.92

Variant | protein stability index
FHPIKETVVEEPVDPTPYLDQLDE [I15P] | 3.53
FHPIKETVVEEPVDETPYLDQLDE [I15E] | 4.59
FHPIKETVVEEPVDMTPYLDQLDE [I15M] | 2.86
FHPIKETVVEEPVDVTPYLDQLDE [I15V] | 3.98
FHPIKETVVEEPVDKTPYLDQLDE [I15K] | 3.86
FHPIKETVVEEPVDWTPYLDQLDE [I15W] | 2.39
FHPIKETVVEEPVDLTPYLDQLDE [I15L] | 3.25
FHPIKETVVEEPVDCTPYLDQLDE [I15C] | 3.49
FHPIKETVVEEPVDQTPYLDQLDE [I15Q] | 3.79
FHPIKETVVEEPVDFTPYLDQLDE [I15F] | 2.4
FHPIKETVVEEPVDNTPYLDQLDE [I15N] | 2.32
FHPIKETVVEEPVDGTPYLDQLDE [I15G] | 3.23
FHPIKETVVEEPVDTTPYLDQLDE [I15T] | 4.26
FHPIKETVVEEPEDITPYLDQLDE [V13E] | 3.34
FHPIKETVVEEPFDITPYLDQLDE [V13F] | 3.05
FHPIKETVVEEPLDITPYLDQLDE [V13L] | 3.22
FHPIKETVVEEPNDITPYLDQLDE [V13N] | 3.42
FHPIKETVVEEPKDITPYLDQLDE [V13K] | 3.05
FHPIKETVVEEPMDITPYLDQLDE [V13M] | 3
FHPIKETVVEEPDDITPYLDQLDE [V13D] | 3.83
FHPIKETVVEEPRDITPYLDQLDE [V13R] | 2.58
FHPIKETVVEEPYDITPYLDQLDE [V13Y] | 3.2
FHPIKETVVEEPADITPYLDQLDE [V13A] | 3.61
FHPIKETVVEEPSDITPYLDQLDE [V13S] | 3.67

Variant | protein stability index
FHPIKETVVEEPCDITPYLDQLDE [V13C] | 3.08
FHPIKETVVEEPPDITPYLDQLDE [V13P] | 2.43
FHPIKETVVEEPIDITPYLDQLDE [V13I] | 3.4
FHPIKETVVEEPGDITPYLDQLDE [V13G] | 3.27
FHPIKETVVEEPWDITPYLDQLDE [V13W] | 2.92
FHPIKETVVEEPHDITPYLDQLDE [V13H] | 3.32
FHPIKETVVEEPTDITPYLDQLDE [V13T] | 3.8
FHPIKETVVEEPQDITPYLDQLDE [V13Q] | 3.25
FHPIKETVVEEPVDITPYLEQLDE [D20E] | 3.48
FHPIKETVVEEPVDITPYLRQLDE [D20R] | 2.96
FHPIKETVVEEPVDITPYLYQLDE [D20Y] | 2.08
FHPIKETVVEEPVDITPYLVQLDE [D20V] | 2.11
FHPIKETVVEEPVDITPYLFQLDE [D20F] | 2.41
FHPIKETVVEEPVDITPYLAQLDE [D20A] | 3.11
FHPIKETVVEEPVDITPYLNQLDE [D20N] | 2.94
FHPIKETVVEEPVDITPYLGQLDE [D20G] | 2.99
FHPIKETVVEEPVDITPYLIQLDE [D20I] | 2.35
FHPIKETVVEEPVDITPYLSQLDE [D20S] | 3.3
FHPIKETVVEEPVDITPYLMQLDE [D20M] | 2.02
FHPIKETVVEEPVDITPYLLQLDE [D20L] | 2.28
FHPIKETVVEEPVDITPYLTQLDE [D20T] | 2.94
FHPIKETVVEEPVDITPYLKQLDE [D20K] | 2.78
